In publication doi:10.1101/2025.10.24.684426 (bioRxiv, 2025):

T1: EhPHDK (PH domain containing protein kinase), full-length recombinant protein (E. histolytica, UniProt C4M4G9 1-433)
T1 sequence (looked up): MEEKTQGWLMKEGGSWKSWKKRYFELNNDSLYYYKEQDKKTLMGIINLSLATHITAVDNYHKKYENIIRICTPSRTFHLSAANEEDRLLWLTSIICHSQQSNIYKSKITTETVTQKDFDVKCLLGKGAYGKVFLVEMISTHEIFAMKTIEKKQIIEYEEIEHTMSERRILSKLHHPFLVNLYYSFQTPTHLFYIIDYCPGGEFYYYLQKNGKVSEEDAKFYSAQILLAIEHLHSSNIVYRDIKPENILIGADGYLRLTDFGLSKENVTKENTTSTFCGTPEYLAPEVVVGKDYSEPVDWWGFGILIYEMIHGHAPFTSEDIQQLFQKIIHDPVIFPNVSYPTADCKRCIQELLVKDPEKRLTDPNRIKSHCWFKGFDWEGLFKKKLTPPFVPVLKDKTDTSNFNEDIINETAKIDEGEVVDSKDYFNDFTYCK

B1: EhCaBP1 (calcium binding protein 1), recombinant (natural protein, E. histolytica, UniProt P38505 1-134, looked up)
chain: MAEALFKEIDVNGDGAVSYEEVKAFVSKKRAIKNEQLLQLIFKSIDADGNGEIDQNEFAKFYGSIQGQDLSDDKIGLKVLYKLMDVDGDGKLTKEEVTSFFKKHGIEKVAEQVMKADANGDGYITLEEFLEFSL

How the values were obtained:
[1] = molecular target: B1; assay: BLI
[2] = molecular target: T1, EhPHDK (PH domain containing protein …); assay: BLI

Kd [1] [µM] | Kd [2] [µM] | Binder
243 | – | IYKSKITTETVTQKD [EhPHDK Peptide 2 (hinge region, IQ motif-like sequence)]
– | 32 | B1
